Assays:
[1] = biological target: EV71 2C 116–329 E325A (enterovirus 71); test: SEC
[2] = biological target: EV71 2C 116–329 (enterovirus 71) (UniProt Q66478); test: SEC

Substance | stoichiometry N [1] | stoichiometry N [2]
EV71 2C 116–329 E325A (domain or fragment) | 2 | –
EV71 2C 116–329 (from UniProt Q66478 117-330) (domain or fragment) | – | 4
